Measurements from the supplement of paper PMC10598134.
± gives the standard deviation.

Assay: collision cross section of modified peptide (TIMS, N2, iRT-aligned); higher = larger / more extended gas-phase ion
In short: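 Values are averages of 1–3 technical replicates of the most abundant feature for each charge state. Collision cross section was obtained from the Mason-Schamp equation after 1/K0 calibration with three reference ions and run-wise alignment to the median iRT peptide deviation. Synthetic peptide pools (iRT standard spiked 1:40) were separated on a 120-min nanoflow C18 gradient at 60 °C, analysed on a timsTOF Pro/HT (dda-PASEF, nitrogen, ~2.4 mbar) and identified with MaxQuant.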

[1] = charge state: 2, modification: Butyryl
[2] = charge state: 2, modification: Crotonyl
[3] = charge state: 2, modification: Dimethyl (K)
[4] = charge state: 2, modification: Formyl
[5] = charge state: 2, modification: Glutarylation
[6] = charge state: 2, modification: GlyGly (K)
[7] = charge state: 2, modification: Malonyl
[8] = charge state: 2, modification: Propionyl
[9] = charge state: 2, modification: Succinyl
[10] = charge state: 2, modification: Trimethyl (K)
[11] = charge state: 2, modification: hydroxyisobutyryl
[12] = charge state: 2, modification: Citrullination (R)
[13] = charge state: 3, modification: Methyl (R)
[14] = charge state: 2, modification: Acetyl (K)

Q: For SGFGKFER [_SGFGK(Butyryl)FER_], which collision cross section [1] is on record?
A: 337.09 ± 1.2 Å²

Q: With SGFGKFER [_SGFGK(Crotonyl)FER_] as the sequence, how does the collision cross section [2] read?
A: 337.57 ± 1.3 Å²

Q: With SGFGKFER [_SGFGK(Dimethyl (K))FER_] as the sequence, how does the collision cross section [3] read?
A: 334.57 ± 1.1 Å²

Q: For SGFGKFER [_SGFGK(Formyl)FER_], which collision cross section [4] is on record?
A: 326.95 ± 0.99 Å²

Q: With SGFGKFER [_SGFGK(Gluratylation)FER_] as the sequence, how does the collision cross section [5] read?
A: 340.69 ± 0.69 Å²

Q: For SGFGKFER [_SGFGK(GlyGly (K))FER_], which collision cross section [6] is on record?
A: 340.43 ± 0.74 Å²

Q: For SGFGKFER [_SGFGK(Malonyl)FER_], which collision cross section [7] is on record?
A: 335.56 Å²

Q: For SGFGKFER [_SGFGK(Propionyl)FER_], which collision cross section [8] is on record?
A: 336.62 ± 0.34 Å²

Q: Which collision cross section [9] does the source give for SGFGKFER [_SGFGK(Succinyl)FER_] here?
A: 336.55 ± 1.3 Å²

Q: With SGFGKFER [_SGFGK(Trimethyl (K))FER_] as the sequence, how does the collision cross section [10] read?
A: 339.14 Å²

Q: Which collision cross section [11] does the source give for “SGFGKFER [_SGFGK(hydroxyisobutyryl)FER_]” here?
A: 340.58 ± 1.9 Å²

Q: Which collision cross section [12] does the source give for “SGGGYGGDRGGGYGGDR [_SGGGYGGDR(Citrullination (R))GGGYGGDR_]” here?
A: 393.58 ± 0.28 Å²

Q: And the collision cross section (charge state: 3, modification: Citrullination (R))?
A: 470.6 ± 4.1 Å²

Q: With “SGGGYGGDRGGGYGGDR [_SGGGYGGDR(Methyl (R))GGGYGGDR_]” as the sequence, how does the collision cross section [13] read?
A: 461.83 ± 3 Å²

Q: Which collision cross section [13] does the source give for “SGGGYGGDRSSGGGYSGDR [_SGGGYGGDR(Methyl (R))SSGGGYSGDR_]” here?
A: 484.52 ± 1.5 Å²

Q: Which collision cross section [12] does the source give for “SGGRGVSVSSAR [_SGGR(Citrullination (R))GVSVSSAR_]” here?
A: 351.18 ± 4.8 Å²

Q: Which results are given for “SGGRGVSVSSAR [_SGGR(Methyl (R))GVSVSSAR_]”?
A: collision cross section (charge state: 2, modification: Methyl (R)): 362.59 ± 13 Å²; collision cross section [13]: 443.44 ± 0.81 Å²

Q: With “SGGYGGSRDYYSSR [_SGGYGGSR(Citrullination (R))DYYSSR_]” as the sequence, how does the collision cross section [12] read?
A: 397.63 ± 1.4 Å²

Q: Which collision cross section [13] does the source give for “SGGYGGSRDYYSSR [_SGGYGGSR(Methyl (R))DYYSSR_]” here?
A: 475.52 ± 2 Å²

Q: For “SGKFTQQDIDEAK [_SGK(Acetyl (K))FTQQDIDEAK_]”, which collision cross section [14] is on record?
A: 412.93 ± 2.8 Å²

Q: With SGKFTQQDIDEAK [_SGK(Biotin)FTQQDIDEAK_] as the sequence, how does the collision cross section (charge state: 2, modification: Biotin) read?
A: 433.94 ± 2.7 Å²

Q: With “SGKFTQQDIDEAK [_SGK(Butyryl)FTQQDIDEAK_]” as the sequence, how does the collision cross section [1] read?
A: 419.52 ± 1.7 Å²

Q: With “SGKFTQQDIDEAK [_SGK(Crotonyl)FTQQDIDEAK_]” as the sequence, how does the collision cross section [2] read?
A: 419.28 ± 0.55 Å²

Q: Which collision cross section [3] does the source give for “SGKFTQQDIDEAK [_SGK(Dimethyl (K))FTQQDIDEAK_]” here?
A: 408.63 Å²

Q: And the collision cross section (charge state: 3, modification: Dimethyl (K))?
A: 466.84 ± 1.6 Å²

Q: For SGKFTQQDIDEAK [_SGK(Formyl)FTQQDIDEAK_], which collision cross section [4] is on record?
A: 408.45 ± 0.19 Å²

Q: Which collision cross section [5] does the source give for “SGKFTQQDIDEAK [_SGK(Gluratylation)FTQQDIDEAK_]” here?
A: 415.95 ± 0.14 Å²

Q: With “SGKFTQQDIDEAK [_SGK(GlyGly (K))FTQQDIDEAK_]” as the sequence, how does the collision cross section [6] read?
A: 414.34 ± 1.9 Å²

Q: What about the collision cross section (charge state: 3, modification: GlyGly (K)) of the same sequence?
A: 476.61 ± 1.1 Å²

Q: For “SGKFTQQDIDEAK [_SGK(Malonyl)FTQQDIDEAK_]”, which collision cross section [7] is on record?
A: 410.91 ± 0.58 Å²

Q: With “SGKFTQQDIDEAK [_SGK(Methyl (K))FTQQDIDEAK_]” as the sequence, how does the collision cross section (charge state: 2, modification: Methyl (K)) read?
A: 408.84 ± 1.9 Å²

Q: And the collision cross section (charge state: 3, modification: Methyl (K))?
A: 468.01 ± 3.6 Å²

Q: With “SGKFTQQDIDEAK [_SGK(Propionyl)FTQQDIDEAK_]” as the sequence, how does the collision cross section [8] read?
A: 414.71 ± 0.97 Å²

Q: Which collision cross section [9] does the source give for “SGKFTQQDIDEAK [_SGK(Succinyl)FTQQDIDEAK_]” here?
A: 414.39 ± 0.54 Å²

Q: For “SGKFTQQDIDEAK [_SGK(Trimethyl (K))FTQQDIDEAK_]”, which collision cross section [10] is on record?
A: 408.18 ± 1.1 Å²

Q: And the collision cross section (charge state: 3, modification: Trimethyl (K))?
A: 472.62 ± 0.88 Å²

Q: Which collision cross section [11] does the source give for “SGKFTQQDIDEAK [_SGK(hydroxyisobutyryl)FTQQDIDEAK_]” here?
A: 423.01 ± 2.3 Å²

Q: With “SGNLTEDDKHNNAK [_SGNLTEDDK(Acetyl (K))HNNAK_]” as the sequence, how does the collision cross section [14] read?
A: 418.78 ± 2.4 Å²

Q: What about the collision cross section (charge state: 3, modification: Acetyl (K)) of the same sequence?
A: 469.35 ± 2.1 Å²
